Among the data in patent publication US5001064A, “Phosphatidylinositol 4-kinase” (Washington University, priority 1988, dated 1991) are Km values, retold here.

Usually Km stands for the substrate concentration at which the rate is half of its maximum.

Substrate in this data set: Nc1ncnc2c1ncn2[C@@H]1O[C@H](COP(=O)(O)OP(=O)(O)OP(=O)(O)O)[C@@H](O)[C@H]1O
Briefly: PtdIns 4-kinase activity assay: kinetic parameters, specific activity, pH optimum. The data set is classed as biochemical, bovine. As to conditions: other: purified enzyme, pH 7.4 (Tris-HCl), double-reciprocal plot, 30.0 °C. Here is the method:
PtdIns 4-kinase activity was assayed in 60 μl at 30° C. in 20 mM BisTris-HCl (pH 7.0), 10 mM MgCl2, 1.0% Triton X-100, 0.25 mg/ml phosphatidylinositol, and 150 μM ATP (1.25 μCi[-^32 P]ATP), unless otherwise noted. The reaction was terminated by the addition of 12 μl of cold HCl, 120 μl of cold methanol, 150 μl of chloroform, and 40 μl of H2 O. The extracted samples were centrifuged at 12,000 × g for 1 min. and the aqueous layer removed and discarded. When needed, the organic phase was washed with 40 μl of cold methanol and 40 μl of cold 1.0 N HCl, centrifuged at 12,000 × g, and the aqueous layer was removed. The organic phase was then dried under vacuum in a Savant speed-vac, resuspended in 40 μl of chloroform/methanol (2:1), and chromatographed on potassium oxalate-impregnated Silica Gel 60 thin layer chromatography plates (TLC). The solvent system used consisted of chloroform/methanol/ammonium hydroxide/water (51:39.6:3:8.4). […] The reaction product, phosphatidylinositol 4-phosphate, was visualized by autoradiography, and the corresponding area of the TLC plate was scraped and quantitated by Cherenkov counting. […]
In order to optimize the assay of this enzyme, the pH optimum for Ptdlns 4-kinase was determined. […]

B1: PtdIns 4-kinase (Bos taurus) (protein)
chain: MDETSPLVSPERAQPPDYTFPSGSSAHFPQVPGGAVRVAAAAGPVSSPPGSPGHDRERQPLLDRARGAAAQGQTQTVAAQAQALAAQAAAAAHAAQAHRERNEFPEDPEFEAVVRQAELAIERGIFPERIYQGSSGSYFVKDPQGKIIAVFKPKNEEPYGQLNPKWTKWLQKLCCPCCFGRDCLVLNQGYLSEAGASLVDQKLELNIVPRTKVVYLASETFNYSAIDRVKSRGKRLALEKVPKVGQRFNRIGLPPKVGSFQLFVESYKDADYWLRRFEAEPLPENTNRQLLLQFERLVVLDYIIRNTDRGNDNWLIKYDCPMDSSNSRDTDWVVVKEPVIKVAAIDNGLAFPLKHPDSWRAYPFYWAWLPQAKVPFSQEIKDLILPKISDPNFVKDLEEDLYELFKKDPGFDRGQFHKQIAVMRGQILNLTQALKDNKCPLHLVQMPPVIVETARSHQRSSSESYTQSFQSRKPFFSWW
notes: It constitutes the major PtdIns 4-kinase activity of bovine uteri; from tissue; host or cells: bovine uterus (acetone powder, purified over ammonium sulfate, Mono Q, S-Sepharose, Mono Q, Mono P and hydroxylapatite)
Take B1: the Km turned out to be 18 µM.
